Experimental findings from PMC4501837, “Mutational Dissection of Telomeric DNA Binding Requirements of G4 Resolvase 1 Shows that G4-Structure and Certain 3’-Tail Sequences Are Sufficient for Tight and Complete Binding” are described below.

For data set [1], the target named is T1, G4 Resolvase 1 (G4R1) (UniProt Q9H2U1 1-1008).
T1 sequence: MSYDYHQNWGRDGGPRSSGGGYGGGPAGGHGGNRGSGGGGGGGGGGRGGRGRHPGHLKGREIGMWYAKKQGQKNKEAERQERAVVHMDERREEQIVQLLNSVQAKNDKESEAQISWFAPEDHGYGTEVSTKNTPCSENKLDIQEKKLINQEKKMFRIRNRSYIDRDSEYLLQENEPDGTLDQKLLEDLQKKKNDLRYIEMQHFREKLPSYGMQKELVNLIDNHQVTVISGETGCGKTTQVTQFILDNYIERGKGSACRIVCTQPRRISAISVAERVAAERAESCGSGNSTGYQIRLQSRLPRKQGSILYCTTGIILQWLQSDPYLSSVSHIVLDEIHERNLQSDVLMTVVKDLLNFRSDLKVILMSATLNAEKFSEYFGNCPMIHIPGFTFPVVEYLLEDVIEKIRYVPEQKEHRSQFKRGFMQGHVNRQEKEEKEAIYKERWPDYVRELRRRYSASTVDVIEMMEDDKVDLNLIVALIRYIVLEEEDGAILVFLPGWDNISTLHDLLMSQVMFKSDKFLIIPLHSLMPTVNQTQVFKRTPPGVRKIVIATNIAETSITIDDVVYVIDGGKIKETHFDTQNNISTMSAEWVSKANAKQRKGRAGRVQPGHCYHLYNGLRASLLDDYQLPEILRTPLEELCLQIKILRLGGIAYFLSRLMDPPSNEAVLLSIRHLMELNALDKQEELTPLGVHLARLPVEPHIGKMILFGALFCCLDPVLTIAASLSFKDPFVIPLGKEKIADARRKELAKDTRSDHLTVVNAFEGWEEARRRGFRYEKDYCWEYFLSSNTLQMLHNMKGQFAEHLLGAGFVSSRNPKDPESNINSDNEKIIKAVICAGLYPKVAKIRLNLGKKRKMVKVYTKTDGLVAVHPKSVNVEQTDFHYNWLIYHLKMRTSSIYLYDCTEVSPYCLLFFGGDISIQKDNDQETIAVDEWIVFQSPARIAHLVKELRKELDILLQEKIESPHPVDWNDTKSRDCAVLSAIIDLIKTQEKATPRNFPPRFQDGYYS
In words: EMSA; 50 mM KCl, K+-induced 3+1 G4, 24 h; apparent Kd, n=3; 50 mM KCl, 10 mM NaCl (or 50 mM KCl or 50 mM NaCl alone), 3 mM MgCl2, 50 mM Tris acetate pH 7.8, 70 mM glycine, 0.012% bovine lactalbumin, 10% glycerol, 10 mM EDTA; 37 C, 0.5 or 24 h; 1 pM DNA, 10-500 pM G4R1; gel at 7 C. As to conditions: protein: recombinant; label: 5'-32P; unimolecular G4; 3+1 in K+, 2+2 basket in Na+. On the technique in general: In EMSA bound probe runs differently from free probe, usually more slowly.

Data set [2] has as its target T1, G4 Resolvase 1 (G4R1). In words: EMSA; K+; similar to Tel33; 50 mM KCl, 10 mM NaCl (or 50 mM KCl or 50 mM NaCl alone), 3 mM MgCl2, 50 mM Tris acetate pH 7.8, 70 mM glycine, 0.012% bovine lactalbumin, 10% glycerol, 10 mM EDTA; 37 C, 0.5 or 24 h; 1 pM DNA, 10-500 pM G4R1; gel at 7 C. The following applies: protein: recombinant, label: 5'-32P.
In data set [3] the target is T1, G4 Resolvase 1 (G4R1). In words: EMSA; K+; negligible binding; 50 mM KCl, 10 mM NaCl (or 50 mM KCl or 50 mM NaCl alone), 3 mM MgCl2, 50 mM Tris acetate pH 7.8, 70 mM glycine, 0.012% bovine lactalbumin, 10% glycerol, 10 mM EDTA; 37 C, 0.5 or 24 h; 1 pM DNA, 10-500 pM G4R1; gel at 7 C. The following applies: protein: recombinant; label: 5'-32P; G4 ablated (CD).
Data set [4] addresses T1, G4 Resolvase 1 (G4R1). In words: EMSA; K+; significant binding restored; 50 mM KCl, 10 mM NaCl (or 50 mM KCl or 50 mM NaCl alone), 3 mM MgCl2, 50 mM Tris acetate pH 7.8, 70 mM glycine, 0.012% bovine lactalbumin, 10% glycerol, 10 mM EDTA; 37 C, 0.5 or 24 h; 1 pM DNA, 10-500 pM G4R1; gel at 7 C. The following applies: protein: recombinant; label: 5'-32P; unimolecular G4, two tetrads expected.

The target in data set [5] is T1, G4 Resolvase 1 (G4R1). In words: EMSA; K+; complete binding restored; 50 mM KCl, 10 mM NaCl (or 50 mM KCl or 50 mM NaCl alone), 3 mM MgCl2, 50 mM Tris acetate pH 7.8, 70 mM glycine, 0.012% bovine lactalbumin, 10% glycerol, 10 mM EDTA; 37 C, 0.5 or 24 h; 1 pM DNA, 10-500 pM G4R1; gel at 7 C. The following applies: protein: recombinant; label: 5'-32P; unimolecular G4, two tetrads expected.

Data set [6] addresses T1, G4 Resolvase 1 (G4R1). In words: EMSA; K+; 50 mM KCl, 10 mM NaCl (or 50 mM KCl or 50 mM NaCl alone), 3 mM MgCl2, 50 mM Tris acetate pH 7.8, 70 mM glycine, 0.012% bovine lactalbumin, 10% glycerol, 10 mM EDTA; 37 C, 0.5 or 24 h; 1 pM DNA, 10-500 pM G4R1; gel at 7 C. The following applies: protein: recombinant, label: 5'-32P, unimolecular G4, 3+1 in K+.
For data set [7], the target named is T1, G4 Resolvase 1 (G4R1). In words: EMSA; K+; did not significantly bind; 50 mM KCl, 10 mM NaCl (or 50 mM KCl or 50 mM NaCl alone), 3 mM MgCl2, 50 mM Tris acetate pH 7.8, 70 mM glycine, 0.012% bovine lactalbumin, 10% glycerol, 10 mM EDTA; 37 C, 0.5 or 24 h; 1 pM DNA, 10-500 pM G4R1; gel at 7 C. The following applies: protein: recombinant; label: 5'-32P; unimolecular G4, 3+1 in K+, at most 2 nt 3' tail.

[8] abbreviates: unimolecular 5' G4 with about 11 nt 3' tail.

TTAGGGTTAGGGTTAGGGTTAGGGTTAGGGTTA (structured_DNA) [Tel33]: the Kd in the data set with G4 Resolvase 1 (G4R1) [1] turned out to be 0.01 ± 0.0019 nM. As to TTAGGGTTAGGGTTAGGGTTAGGGTTAGAGTTA (structured_DNA) [Tel33mut5], the binding result in the data set with G4 Resolvase 1 (G4R1) [2] (unimolecular 5' G4 with 3' tail about 11 nt) is given as “binds”. With TTAGAGTTAGGGTTAGGGTTAGGGTTAGAGTTA (ssDNA) [Tel33mut5-mutA], the binding result in the data set with G4 Resolvase 1 (G4R1) [3] is recorded as “no binding”. In the case of TTGGAGTTAGGGTTAGGGTTAGGGTTAGAGTTA (structured_DNA) [Tel33mut5-mutA-pos3G], in the data set with G4 Resolvase 1 (G4R1) [4], the binding result is recorded as “binds”. For the molecule TTAGAGGTAGGGTTAGGGTTAGGGTTAGAGTTA (structured_DNA) [Tel33mut5-mutA-pos7G], in the data set with G4 Resolvase 1 (G4R1) [5], the binding result is “binds”.

Take AGGGTTAGGGTTAGGGTTAGGGTTAGAATTTTT (structured_DNA) [Tel22-3'polyT-mutAGAA]: the binding result with G4 Resolvase 1 (G4R1) [2] (setting [8]) is given as “binds”. The same measure, in the same setting: in the case of AGGGTTAGGGTTAGGGTTAGGGTTAAGATTTTT (structured_DNA) [Tel22-3'polyT-mutAAGA] it was “binds”.

Regarding AGGGTTAGGGTTAGGGTTAGGG (structured_DNA) [Tel22], in the data set with G4 Resolvase 1 (G4R1) [6] (no 3' tail), the binding result is reported as “no binding”. As for GGTTAGGGTTAGGGTTAGGGTTAGGGTTAG (structured_DNA) [Tel30], in the data set with G4 Resolvase 1 (G4R1) [6], the binding result is recorded as “binds”. With TTAGGGTTAGGGTTAGGGTTAGGGTT (structured_DNA) [Tel26], the binding result with G4 Resolvase 1 (G4R1) [7] is listed as “no binding”.
